How the values were obtained:
[1] = biological target: T1, U2AF23 WT;U2AF59 fragment (Schizosaccharomyces …, UniProt Q09176;P36629 1-216;93-161, |); assay: ITC
T1 sequence 1: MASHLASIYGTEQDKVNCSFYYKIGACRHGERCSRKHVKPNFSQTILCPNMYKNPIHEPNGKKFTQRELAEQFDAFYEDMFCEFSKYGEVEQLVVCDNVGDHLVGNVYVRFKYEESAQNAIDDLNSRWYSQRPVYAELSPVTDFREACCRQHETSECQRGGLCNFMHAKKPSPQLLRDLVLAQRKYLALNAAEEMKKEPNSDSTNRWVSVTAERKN
T1 sequence 2: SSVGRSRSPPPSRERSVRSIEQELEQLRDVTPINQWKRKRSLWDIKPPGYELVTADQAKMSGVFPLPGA

[2] = biological target: T2, U2AF23, the small subunit of fission yeast Schizosaccharomyces pombe U2AF (Schizosaccharomyces pombe, UniProt Q09176 1-216); assay: crystal structure
T2 sequence: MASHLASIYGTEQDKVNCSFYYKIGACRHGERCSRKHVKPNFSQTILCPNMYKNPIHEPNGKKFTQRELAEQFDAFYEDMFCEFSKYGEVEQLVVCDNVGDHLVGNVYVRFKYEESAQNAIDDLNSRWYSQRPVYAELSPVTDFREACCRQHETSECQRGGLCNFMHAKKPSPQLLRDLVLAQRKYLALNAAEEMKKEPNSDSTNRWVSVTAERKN

[3] = biological target: T3, U2AF23 R150S;U2AF59 fragment (Schizosaccharomyces …, UniProt Q09176;P36629 1-216;93-161, R150S|); assay: ITC
T3 sequence 1: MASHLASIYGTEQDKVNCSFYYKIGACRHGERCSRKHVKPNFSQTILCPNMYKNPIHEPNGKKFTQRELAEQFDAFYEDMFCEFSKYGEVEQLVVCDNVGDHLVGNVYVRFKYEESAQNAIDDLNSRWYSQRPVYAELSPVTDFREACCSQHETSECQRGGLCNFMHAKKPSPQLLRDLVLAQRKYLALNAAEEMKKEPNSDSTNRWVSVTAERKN
T3 sequence 2: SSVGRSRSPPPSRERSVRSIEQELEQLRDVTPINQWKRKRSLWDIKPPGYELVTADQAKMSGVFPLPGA

[4] = biological target: T4, U2AF23 F165A;U2AF59 fragment (Schizosaccharomyces …, UniProt Q09176;P36629 1-216;93-161, F165A|); assay: ITC
T4 sequence 1: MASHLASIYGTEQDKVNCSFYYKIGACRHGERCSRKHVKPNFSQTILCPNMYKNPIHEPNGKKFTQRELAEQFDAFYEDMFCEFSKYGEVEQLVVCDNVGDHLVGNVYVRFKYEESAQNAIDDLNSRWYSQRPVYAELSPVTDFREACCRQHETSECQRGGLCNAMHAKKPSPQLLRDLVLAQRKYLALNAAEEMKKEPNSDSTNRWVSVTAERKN
T4 sequence 2: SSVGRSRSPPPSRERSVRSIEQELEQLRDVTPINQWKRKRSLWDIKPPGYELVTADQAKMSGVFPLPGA

[5] = biological target: T5, U2AF23 Q151R;U2AF59 fragment (Schizosaccharomyces …, UniProt Q09176;P36629 1-216;93-161, Q151R|); assay: ITC
T5 sequence 1: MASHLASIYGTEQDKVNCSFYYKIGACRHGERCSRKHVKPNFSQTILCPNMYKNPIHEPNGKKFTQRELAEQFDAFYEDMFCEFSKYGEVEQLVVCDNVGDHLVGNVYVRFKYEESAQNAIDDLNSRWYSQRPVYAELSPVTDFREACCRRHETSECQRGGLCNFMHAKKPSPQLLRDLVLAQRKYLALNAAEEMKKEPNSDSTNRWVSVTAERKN
T5 sequence 2: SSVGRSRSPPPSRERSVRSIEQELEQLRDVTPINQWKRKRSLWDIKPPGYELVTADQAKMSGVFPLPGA

[6] = biological target: T6, U2AF23 R28S;U2AF59 fragment (Schizosaccharomyces …, UniProt Q09176;P36629 1-216;93-161, R28S|); assay: ITC
T6 sequence 1: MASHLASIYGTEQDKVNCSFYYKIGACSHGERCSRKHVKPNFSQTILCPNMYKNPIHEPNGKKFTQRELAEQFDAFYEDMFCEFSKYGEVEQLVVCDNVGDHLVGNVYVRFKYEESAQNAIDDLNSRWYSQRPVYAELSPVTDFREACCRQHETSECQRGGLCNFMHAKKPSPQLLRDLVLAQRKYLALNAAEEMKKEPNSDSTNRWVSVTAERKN
T6 sequence 2: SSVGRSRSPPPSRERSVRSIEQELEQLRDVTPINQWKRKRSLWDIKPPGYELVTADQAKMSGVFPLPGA

[7] = biological target: T7, U2AF23 R159S;U2AF59 fragment (Schizosaccharomyces …, UniProt Q09176;P36629 1-216;93-161, R159S|); assay: ITC
T7 sequence 1: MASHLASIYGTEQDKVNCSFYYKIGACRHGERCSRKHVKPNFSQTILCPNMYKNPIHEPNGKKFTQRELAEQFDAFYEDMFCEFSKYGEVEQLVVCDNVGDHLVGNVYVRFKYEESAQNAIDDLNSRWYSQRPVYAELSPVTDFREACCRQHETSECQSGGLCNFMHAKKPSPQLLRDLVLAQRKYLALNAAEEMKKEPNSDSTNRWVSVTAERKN
T7 sequence 2: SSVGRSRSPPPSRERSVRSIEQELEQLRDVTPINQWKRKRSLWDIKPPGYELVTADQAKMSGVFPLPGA

[8] = biological target: T8, U2AF23 R35S;U2AF59 fragment (Schizosaccharomyces …, UniProt Q09176;P36629 1-216;93-161, R35S|); assay: ITC
T8 sequence 1: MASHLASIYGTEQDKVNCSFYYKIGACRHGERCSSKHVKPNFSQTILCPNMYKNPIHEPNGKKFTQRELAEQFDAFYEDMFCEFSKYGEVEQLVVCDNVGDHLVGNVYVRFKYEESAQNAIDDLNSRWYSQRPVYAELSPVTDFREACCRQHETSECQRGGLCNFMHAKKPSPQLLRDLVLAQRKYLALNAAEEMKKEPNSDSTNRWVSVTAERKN
T8 sequence 2: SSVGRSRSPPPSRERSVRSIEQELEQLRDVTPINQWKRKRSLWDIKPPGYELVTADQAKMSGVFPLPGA

[9] = biological target: T9, U2AF23 F20A;U2AF59 fragment (Schizosaccharomyces …, UniProt Q09176;P36629 1-216;93-161, F20A|); assay: ITC
T9 sequence 1: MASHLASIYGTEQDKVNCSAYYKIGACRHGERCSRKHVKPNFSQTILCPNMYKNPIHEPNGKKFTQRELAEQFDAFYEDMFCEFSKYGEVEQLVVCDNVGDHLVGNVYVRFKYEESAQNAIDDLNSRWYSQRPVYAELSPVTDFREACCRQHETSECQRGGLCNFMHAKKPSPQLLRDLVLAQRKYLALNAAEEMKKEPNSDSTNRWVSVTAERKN
T9 sequence 2: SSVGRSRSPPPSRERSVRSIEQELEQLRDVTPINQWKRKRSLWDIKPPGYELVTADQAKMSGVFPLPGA

With CUUGG (ssRNA) the Kd [1] was 429 µM.

UUUUUUUUUU (ssRNA) [U10]: no binding [1].

B1: U2AF59 fragment spanning residues 93–161 (S. pombe U2AF large subunit) (domain or fragment)
chain: SSVGRSRSPPPSRERSVRSIEQELEQLRDVTPINQWKRKRSLWDIKPPGYELVTADQAKMSGVFPLPGA
B1: binds [2].

CUAGG (ssRNA) was tested, and the binding result [3] was “no binding”, the binding result [4] was “no binding” and the Kd [5] was 0.75 µM. The Kd [6] was 12 µM, the binding result [7] was “no binding” and the Kd [1] was 1.2 µM. CUAGG (ssRNA): no binding [8]; no binding [9].

CUGGG (ssRNA) showed a Kd [1] of 63 µM.

CUACG (ssRNA): no binding [1].

CUCGG (ssRNA) gave a Kd [1] of 296 µM.

In the case of CUAUG (ssRNA), the Kd [5] is reported as 53 µM and the binding result [1] is reported as “no binding”.
